Assay [1] deals with T1, human IL13 (human, UniProt P35225 35-146, biotinylated in the SPR assays (sites not given)).
T1 construct: Peprotech; also called hIL13; recombinant human IL13
Briefly: SPR ProteOn, biotin-hIL13 on streptavidin, 1:1 global fit. As for the experimental part:
Complete kinetic data describing binding of various engineered binding protein molecules to human IL13 was measured using a method similar to that described above for the single point affinity analysis. Briefly, streptavidin (Pierce) was immobilized to similar levels (˜1800 RUs) on all six channels of a ProteOn GLC chip via amine coupling (pH 5.0). Biotinylated hIL13 was captured at different surface densities (600˜100 RUs) on different channels. Protein binding was tested starting at 40 nM diluted in a 3-fold concentration series over the different density IL13 surfaces; a buffer sample was injected to monitor the baseline stability. Dissociation phases for all concentrations of each binding protein sample were monitored for one hour at a flow rate of 100 μl/min. Response data for all concentration series from the different density surfaces were globally fit to a 1:1 simple langmuir binding model to extract values of the kinetic (kₒₙ, koff) and affinity (KD) constants provided in Table 16.

The target of assay [2] is cyno IL13 (cynomolgus monkey, UniProt Q0PW92 21-132). Briefly: cell-based or functional assay.
Chain of cyno IL13 (Q0PW92 entry or part of it): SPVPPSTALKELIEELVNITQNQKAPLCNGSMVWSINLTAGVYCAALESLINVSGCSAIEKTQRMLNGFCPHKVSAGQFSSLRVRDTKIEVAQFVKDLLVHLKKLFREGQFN
The target of assay [3] is T1, human IL13. Kind of assay: cell-based or functional assay.
Assay [4] addresses T1, human IL13. Kind of assay: SPR BIAcore, biotin-IL13 on SA chip, global fit. As for the experimental part: Recombinant human IL13 (Peprotech) was minimally biotinylated on ice using sulfo-NHS-LCLC-Biotin and desalted into the experimental running buffer containing 10 mM HEPES, 150 mM NaCl, pH 7.4, 0.01% Tween-20, and 0.1 mg/mL BSA. Biotinylated IL13 was captured at three different surface densities (from about 150, 50, and 25 RU) onto three different BIAcore SA (streptavidin) sensor chips. Each binding protein sample was tested at 40 nM as the highest concentration in a 3-fold dilution series over the three different density IL13 surfaces. The dissociation phase for the highest concentration of the binding protein sample was monitored for one hour. The response data from each of the different density surfaces was globally fitted in order to extract estimates of the kinetic and affinity constants which are provided in Table 7 below.
In general terms: Surface plasmon resonance follows binding to a sensor surface in real time, without labels.

In assay [5] the target is T1, human IL13. Briefly: cell-based or functional assay. The source holds these as a separate data set.
Assay [6] deals with T2, human IL13 R130Q (human, UniProt P35225 35-146, biotinylated (sites not given)).
T2 construct: Peprotech; also called IL13R13Q; R111Q
T2 sequence (P35225 35-146 limits assumed, stated change not applied): as the sequence (Q0PW92 entry or part of it) above, with S1G, K10R, V42M, N67S, R83H, V100L counted along it
Kind of assay: Luminex competition, 80 pM biotin-IL13 R130Q binding to IL13Ra2-Fc beads. As to the method: Binding protein inhibition of IL13 binding to Rα2 was assessed using IL13Rα2-Fc (R&D Systems) conjugated to carboxylated Luminex microspheres according to the manufacturer's protocol. For biotinylation of IL13, recombinant human IL13 R130Q (Peprotech) was biotinylated at a 4:1 ratio using EZ-Link NHS-LC-Biotin (Pierce, #21336) for 2 hours at RT. The protein was dialyzed in PBS overnight to remove excess biotinylation reagent. For neutralization experiments, 5000 IL13 Rα2-Fc conjugated beads in 50 μl were added to each well of a 96-well filter plate (Millipore). 50 μl of biotinylated human IL13 at 1 ng/ml (80 pM) was mixed with an appropriate dilution of binding protein in Luminex Assay Buffer (PBS, 1% BSA, pH 7.4). The plate was incubated for 1 hour at RT in the dark on a plate shaker, set to shake vigorously to avoid bead aggregation. The plate was washed 3 times with 150 μl of wash buffer (PBS, 1% BSA, pH 7.4, 0.05% Tween-20) using a vacuum manifold followed by the addition of 50 μl of Streptavidin PE at 25 μg/ml and incubated at RT for 20 minutes. The plates were washed again and 100 μl of sheath fluid was added and the plate was placed on the shaker for 1 minute. Plates were read using a Luminex® 100 system; data were plotted as a function of binding protein concentration. IC₅₀ values were determined by fitting the data to the equation for sigmoidal dose response using PRIZM software (GraphPAD PRIZM).

Assay [7] concerns the target T3, human IL4 (human, UniProt P05112 25-153, biotinylated in the SPR and competition assays (sites not given)).
T3 sequence: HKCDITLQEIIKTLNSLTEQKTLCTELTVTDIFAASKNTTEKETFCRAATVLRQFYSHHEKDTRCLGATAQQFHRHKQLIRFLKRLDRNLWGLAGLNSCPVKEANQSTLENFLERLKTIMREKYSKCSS
Briefly: cell-based or functional assay.

Assay [8] addresses T3, human IL4. Briefly: binding to recombinant IL4; kinetic method not restated.
The target of assay [9] is T3, human IL4. Kind of assay: Luminex competition, 67 pM biotin-IL4 binding to IL4RA-Fc beads. As to the method:
For biotinylation of IL4, recombinant human IL4 (Peprotech) was biotinylated at a 4:1 ratio using EZ-Link NHS-LC-Biotin (Pierce, #21336) for 2 hours at RT. The protein was dialyzed in PBS overnight to remove excess biotinylation reagent. Competition binding for cynomologous IL4 (SEQ ID NO: 5) was performed using the isolated protein biotinylated in the same manner.
AR protein inhibition of IL4 binding to IL4 RA was assessed using IL4 RA-Fc (R&D Systems), comprising the Gly24-His232 which represents the ECD (SEQ ID NO: 5) fused to a human IgGl-Fc and therefor a disulfide linked homodimer. The protein was conjugated to carboxylated Luminex microspheres according to the manufacturer's protocol. For neutralization experiments, 5000 IL4RA-Fc conjugated beads in 50 μl were added to each well of a 96-well filter plate (Millipore). Biotinylated human IL4 was mixed with an appropriate dilution of AR protein in Luminex Assay Buffer (PBS, 1% BSA, pH 7.4) to give a final concentration of 67 pM IL4. The plate was incubated for 1 hour at RT in the dark on a plate shaker, set to shake vigorously to avoid bead aggregation. The plate was washed twice with 150 μl of wash buffer (PBS, 0.1% BSA, pH 7.4, 0.05% Tween-20) using a vacuum manifold followed by the addition of 50 μl of Streptavidin PE at 25 μg/ml and incubated at RT for 20 minutes. The plates were washed again and 150 μl of sheath fluid was added and the plate was placed on the shaker for 5 minute. Plates were read using a Luminex® 100 system; data were plotted as a function of AR protein concentration. IC₅₀ values were determined by fitting the data to the equation for sigmoidal dose response using PRISM software (GraphPAD PRISM) (Table 6).

Assay [10] concerns the target T3, human IL4. Briefly: cell-based or functional assay. This is another data set of the same source.
For assay [11], the target named is T3, human IL4. Briefly: SPR ProteOn, biotin-IL4 on neutravidin chip, 1:1 fit. As for the experimental part:
Purified binders selected as “hits” were ranked by their affinity on a ProteOn XPR-36 instrument (Bio-Rad). ProteOn is an optical biosensor instrument that measures protein-protein interactions in real time, based on Surface Plasmon Resonance technology similar to Biacore (GE). A rapid experimental protocol was performed as follows: On a GLC sensor chip (Bio-Rad), Neutravidin (Thermo Scientific) was covalently immobilized to a density of >5000 RU using amine coupling chemistry as described by the manufacturer. On one flow cell, biotinylated IL4 (Peprotech) was immobilized to a level of 250 RU, while another flow cell was used as reference, with neutravidin immobilized only. […] The retrieved values were used to rank the AR proteins by their affinity.

Assay [12] has as its target T3, human IL4. Briefly: cell-based or functional assay. The source holds these as a separate data set.

Where a chain is given by its changes, count along the chain named.

T1 sequence (P35225 other isoform, or with tags, fused parts or gaps limits assumed): as the sequence (Q0PW92 entry or part of it) above, with S1G, K10R, V42M, N67S, R83H, V100L, Q110R counted along it

B1: 7G11 (designed binder)
chain: DLGKKLLEAARAGQDDEVRILMANGADVNATDEFDSTPLHLAARHGHLEIVEVLLKYGADVNAADFIGDTPLHLAAYRGHLEIVEVLLKCGVDVNADDHGDTPLHLAASMGHLEIVEVLLKNGADVNAQDKFGKTAFDISIDNGNEDLAEILQKLN
notes: ankyrin repeat protein
By Kd is commonly meant the constant that tells how readily two partners part at equilibrium. In general, koff refers to the rate constant with which the complex falls apart. One may read the kon as the rate constant with which the complex forms. In general, IC50 refers to the concentration needed to halve the response being measured. Regarding B1, the Kd in assay [1] came to 0.0168 nM. In addition, the “Cyno IL13 STAT6 IC50” value in assay [2] was 0.098 nM. In addition, in assay [3], the “STAT6 Phospho IC50” value was determined as 0.0025 nM and the “TARC expression IC50” value amounted to 0.0196 nM. In assay [4], this molecule yielded a Kd of 0.0328 nM, a koff of 5.3e-05 s⁻¹ and a kon of 1.62e+06 M⁻¹ s⁻¹. In addition, in assay [5], the “HEK STAT6 IC50” value is 0.0025 nM. Also, in assay [6], the concentration for half-maximal inhibition (IC50) was 0.0034 nM.

B2: C06_53G6v1 (designed binder)
chain: DLGKKLLEAARAGQDDEVRILMANGADVNATDDWGDTLLHLAATDGHLEIVEVLLKAGADVNANDAIGDTPLHLAALYGHLEIVEVLLKYGADVNATDLHGFTPLHLAAFWGHLEIVEVLLKHGADVNAQDKFGKTAFDISIDNGNEDLAEILQKLN
With B2, in assay [7], the “IC50 STAT6” value was 0.0014 nM. Also, the Kd in assay [8] stood at 0.0018 nM.

B3: IL13 binding protein 6G9 (designed binder)
chain: DLGKKLLEAARAGQDDEVRILMANGADVNARDSYGSTPLHLAAREGHLEIVEVLLKYGADVNAKDMIGDTPLHLAAYRGHLEIVEVLLKNGADVNASDITGETPLHLAAQIGHLEIVEVLLKYGADVNAQDKFGKTAFDISIDNGNEDLAEILQKLN
For the molecule B3, the Kd in assay [1] amounted to 0.0249 nM. In assay [2], the “Cyno IL13 STAT6 IC50” value is 0.0964 nM. Moreover, in assay [3], the “STAT6 Phospho IC50” value came out at 0.0174 nM and the “TARC expression IC50” value worked out at 0.064 nM. In [4], this molecule came in with a Kd of 0.0577 nM, a koff of 5.74e-05 s⁻¹ and a kon of 995000 M⁻¹ s⁻¹. Moreover, the “HEK STAT6 IC50” value in assay [5] came to 0.0174 nM. In [6], this molecule returned an IC50 of 0.031 nM.

B4: 6G9r13 (designed binder)
chain: B3 chain with D1A, G3D, K64A, M66F, N90Y, Y123H, L156A, N157A
notes: optimized 6G9; expressed without HIS tag
In [1], B4 gave a Kd of 0.0251 nM. The “HEK STAT6 IC50” value in assay [5] was determined as 0.0056 nM.

B5: C06_28E5 (designed binder)
chain: DLGKKLLEAARAGQDDEVRILMANGADVNAADDSGITPLHLAAEDGHLEIVEVLLKYGADVNAQDNLGDTPLHLAAWTGHLEIVEVLLKNGADVNAYDISGITPLHLAAFYGHLEIVEVLLKHGADVNAQDKFGKTAFDISIDNGNEDLAEILQKLN
notes: ankyrin repeat protein; His-tagged, IMAC-purified; also called benchmark AR protein
B5 showed an IC50 in [9] of 0.0102 nM. For the same molecule, the “inhibition of STAT6 (HEK-STAT6 cells), IC50” value in assay [10] came to 0.003 nM. In assay [11], this molecule came in with a Kd of 0.05 nM, a koff of 4.61e-05 s⁻¹ and a kon of 922000 M⁻¹ s⁻¹. For the same molecule, in assay [12], the “A549 TARC Inhibition IC50” value was found to be 0.174 nM, the “HEK Stat6 Inhibition IC50” value was 0.0014 nM and the “Type 1 Complex inhibition IC50” value is 0.0015 nM.

B6: C06_28E5v1 (designed binder)
chain: B5 chain with Y57A, N90A
With B6, in assay [7], the “IC50 STAT6” value worked out at 0.0031 nM. In addition, in assay [8], the Kd is 0.00838 nM.

B7: C06_44C12v2 (designed binder)
chain: DLGKKLLEAASAGQDDEVHILMANGADVNALDDSGYTPLHLAAEDGHLEIVEVLLKHGADVNAADRLGDTPLHLAAFVGHLEIVEVLLKAGADVNAVDLAGVTPLHVAAFYGHLEIVEVLLKAGADVNAQDKFGKTAFDISIDNGNEDLAEILQKLN
On to B7, for which, in assay [7], the “IC50 STAT6” value turned out to be 0.0069 nM. For the same molecule, the dissociation constant (Kd) in assay [8] worked out at 0.0016 nM.

The record behind these values is patent publication US20120277143A1 (Janssen / Centocor, published 2012).
